Results on one substance are retold here after publication PMC10764275.

This assay addresses Human ACE2 with Fc tag (human) (UniProt Q9BYF1). The assay can be described thus: SPR. Background: Surface plasmon resonance follows binding to a sensor surface in real time, without labels.

Human ACE2 with Fc tag (human), sequence (Q9BYF1 18-740): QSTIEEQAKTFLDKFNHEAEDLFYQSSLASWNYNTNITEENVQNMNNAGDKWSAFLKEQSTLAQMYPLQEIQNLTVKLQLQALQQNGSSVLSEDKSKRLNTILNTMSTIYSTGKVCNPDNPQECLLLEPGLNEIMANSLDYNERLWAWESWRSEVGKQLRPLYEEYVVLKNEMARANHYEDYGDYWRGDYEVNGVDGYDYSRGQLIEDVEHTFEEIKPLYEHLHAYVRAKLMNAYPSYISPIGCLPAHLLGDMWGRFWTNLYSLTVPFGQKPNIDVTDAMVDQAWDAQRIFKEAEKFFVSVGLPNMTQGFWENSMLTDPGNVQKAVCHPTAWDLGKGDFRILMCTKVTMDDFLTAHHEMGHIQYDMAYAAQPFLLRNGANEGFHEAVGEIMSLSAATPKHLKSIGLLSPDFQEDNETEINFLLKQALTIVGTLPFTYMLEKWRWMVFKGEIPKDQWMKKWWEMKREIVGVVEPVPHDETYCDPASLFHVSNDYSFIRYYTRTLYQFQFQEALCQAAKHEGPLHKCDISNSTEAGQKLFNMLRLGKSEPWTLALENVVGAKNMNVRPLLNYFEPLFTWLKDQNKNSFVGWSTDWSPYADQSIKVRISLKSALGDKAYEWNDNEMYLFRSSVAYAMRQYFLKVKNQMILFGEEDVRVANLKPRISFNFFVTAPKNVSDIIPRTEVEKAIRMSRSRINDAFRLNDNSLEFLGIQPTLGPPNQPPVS

Broadly, the Kd is the equilibrium constant for the complex coming apart. A lower Kd goes with tighter binding. For orientation: koff means the first-order rate constant of dissociation. A low value points to a long-lived complex. The substance WT RBD displayed a Kd of 0.016 µM and an off-rate constant (koff) of 0.0051 s⁻¹.
